Source: the supplement of paper PMC10567573

B1: RTN2 (parent)
chain: SERPLEDLRLRLDHLGWVARGTGS

Variants of: B1
Assay: protein stability index of a GFP-peptide fusion (GPS, HEK-293T) (PSI 1-6); higher = more stable
Details: c terminus: a fixed tail appended
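Also: lentivirally expressed fusions sorted by FACS into six bins by GFP to DsRed ratio, PSI derived from sequencing read proportions per bin multiplied by bin number.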

Variant | protein stability index
SERPLEDLRLRLDHLIWVARGTGS [G16I] | 1.75
SERPLEDLRLRLDHLQWVARGTGS [G16Q] | 3.01
SERPLEDLRLRLDHLWWVARGTGS [G16W] | 1.81
SERPLEDLRGRLDHLGWVARGTGS [L10G] | 3.89
SERPLEDLRCRLDHLGWVARGTGS [L10C] | 2.73
SERPLEDLRNRLDHLGWVARGTGS [L10N] | 2.69
SERPLEDLRERLDHLGWVARGTGS [L10E] | 3.15
SERPLEDLRSRLDHLGWVARGTGS [L10S] | 3.19
SERPLEDLRKRLDHLGWVARGTGS [L10K] | 2.06
SERPLEDLRHRLDHLGWVARGTGS [L10H] | 2.38
SERPLEDLRDRLDHLGWVARGTGS [L10D] | 2.72
SERPLEDLRPRLDHLGWVARGTGS [L10P] | 1.74
MERPLEDLRLRLDHLGWVARGTGS [S1M] | 2.73
PERPLEDLRLRLDHLGWVARGTGS [S1P] | 2.66
CERPLEDLRLRLDHLGWVARGTGS [S1C] | 1.88
IERPLEDLRLRLDHLGWVARGTGS [S1I] | 3.02
NERPLEDLRLRLDHLGWVARGTGS [S1N] | 2.57
GERPLEDLRLRLDHLGWVARGTGS [S1G] | 2.87
WERPLEDLRLRLDHLGWVARGTGS [S1W] | 2.46
SEKPLEDLRLRLDHLGWVARGTGS [R3K] | 1.63
SEGPLEDLRLRLDHLGWVARGTGS [R3G] | 2.19
SESPLEDLRLRLDHLGWVARGTGS [R3S] | 2.07
SEFPLEDLRLRLDHLGWVARGTGS [R3F] | 2.18
SENPLEDLRLRLDHLGWVARGTGS [R3N] | 2.48

Variant | protein stability index
SEWPLEDLRLRLDHLGWVARGTGS [R3W] | 1.62
SEPPLEDLRLRLDHLGWVARGTGS [R3P] | 3.56
SEAPLEDLRLRLDHLGWVARGTGS [R3A] | 3.86
SEDPLEDLRLRLDHLGWVARGTGS [R3D] | 2.82
SEQPLEDLRLRLDHLGWVARGTGS [R3Q] | 2
SERPLEDLRLRLDHLGWVARWTGS [G21W] | 1.68
SERPLEDLRLRLDHLGWVARCTGS [G21C] | 1.6
SERPLEDLRLRLDHLGWVARPTGS [G21P] | 2.33
SERPLEDLRLRLDHLGWVARNTGS [G21N] | 2.83
SERPLEDLRLRLDHLGWVARITGS [G21I] | 1.61
SERPLEDLRLRLDHLGWVARTTGS [G21T] | 2.08
SERPLEDLRLRLDHLGWVARKTGS [G21K] | 3.71
SERWLEDLRLRLDHLGWVARGTGS [P4W] | 1.73
SERQLEDLRLRLDHLGWVARGTGS [P4Q] | 2.95
SERRLEDLRLRLDHLGWVARGTGS [P4R] | 1.59
SERELEDLRLRLDHLGWVARGTGS [P4E] | 2.61
SERFLEDLRLRLDHLGWVARGTGS [P4F] | 3.68
SERDLEDLRLRLDHLGWVARGTGS [P4D] | 2.53
SERPLEDLRLRLDHLGWVAYGTGS [R20Y] | 2.34
SERPLEDLRLRLDHLGWVAMGTGS [R20M] | 3.12
SERPLEDLRLRLDHLGWVAEGTGS [R20E] | 4.02
SERPLEDLRLRLDHLGWVASGTGS [R20S] | 4.23
SERPLEDLRLRLDHLGWVATGTGS [R20T] | 3.14
SERPLEDLRLRLDHLGWVAHGTGS [R20H] | 2.77

Variant | protein stability index
SERPLEDLRLRLDHLGWVAFGTGS [R20F] | 2.36
SERPLEDLRLRLDHLGWVARGTPS [G23P] | 3.34
SERPLEDLRLRLDHLGWVARGTMS [G23M] | 1.87
SERPLEDLRLRLDHLGWVARGTAS [G23A] | 3.6
SERPLEDLRLRLDHLGWVARGTNS [G23N] | 2.98
SERPLEDLRLRLDHLGWVARGTES [G23E] | 3.99
SERPLEDLRLRLDHLGWVARGTIS [G23I] | 3.35
SERPLEDLRLRLDHLGWVARGTHS [G23H] | 2.6
SERPLEDLRLRLDHLGWVARGTFS [G23F] | 2.52
SERPPEDLRLRLDHLGWVARGTGS [L5P] | 2.07
SERPMEDLRLRLDHLGWVARGTGS [L5M] | 2.46
SERPTEDLRLRLDHLGWVARGTGS [L5T] | 2.38
SERPIEDLRLRLDHLGWVARGTGS [L5I] | 2.52
SERPDEDLRLRLDHLGWVARGTGS [L5D] | 3.44
SERPFEDLRLRLDHLGWVARGTGS [L5F] | 3.45
SERPLEDLRLRLDHLGWHARGTGS [V18H] | 3.31
SERPLEDLRLRLDHLGWNARGTGS [V18N] | 3.81
SERPLEDLRLRLDHLGWPARGTGS [V18P] | 3.35
SERPLEDLRLRLDHLGWQARGTGS [V18Q] | 3.02
SERPLEDLRLRLDHLGWMARGTGS [V18M] | 3.73
SERPLEDLRLRLDHLGWWARGTGS [V18W] | 2.8
SERPLEDLRLRLDHLGWTARGTGS [V18T] | 2.86
SERPLEDLRLRLDHLGWIARGTGS [V18I] | 3.5
SERPLEDLRLRLDHLGWEARGTGS [V18E] | 4.85

Variant | protein stability index
SERPLEDLRLRLDHLGWRARGTGS [V18R] | 4.14
SERPLEDLRLRLDHFGWVARGTGS [L15F] | 2.8
SERPLEDLRLRLDHIGWVARGTGS [L15I] | 2.28
SERPLEDLRLRLDHQGWVARGTGS [L15Q] | 2.1
SERPLEDLRLRLDHTGWVARGTGS [L15T] | 2.26
SERPLEDLRLRLDHWGWVARGTGS [L15W] | 3.5
SERPLEDLRLRLDHAGWVARGTGS [L15A] | 2.88
SERPLEDLRLRLDHCGWVARGTGS [L15C] | 2.15
SERPLEDLRLRLDHGGWVARGTGS [L15G] | 2.97
SERPLEDLRLILDHLGWVARGTGS [R11I] | 1.41
SERPLEDLRLYLDHLGWVARGTGS [R11Y] | 2.7
SERPLEDLRLFLDHLGWVARGTGS [R11F] | 1.79
SERPLEDLRLALDHLGWVARGTGS [R11A] | 1.92
SERPLEDLRLQLDHLGWVARGTGS [R11Q] | 2.9
SERPLEDLRLNLDHLGWVARGTGS [R11N] | 2.58
SERPLEDLRLWLDHLGWVARGTGS [R11W] | 1.4
SERPLEDLRLRLDHLGEVARGTGS [W17E] | 4.11
SERPLEDLRLRLDHLGGVARGTGS [W17G] | 4.08
SERPLEDLRLRLDHLGQVARGTGS [W17Q] | 4.42
SERPLEDLRLRLDHLGAVARGTGS [W17A] | 4.49
SERPLEDLRLRLDHLGYVARGTGS [W17Y] | 3.48
SERPLEDLRLRLDHLGNVARGTGS [W17N] | 4.65
